Results taken from the DeepSol protein solubility set.

Assay: soluble on expression in E. coli; label from the status in PepcDB or PDB records

Question: Which “soluble on expression in E. coli” value does the source give for “MGSDKIHHHHHHMRQFAKPTIVVSKCLEFDACRYNGEMIPDVTIRNLQPFVTFIPVCPEVEIGLGTPRETIRIVEEKGVNKLMQPSTREDLTGKMEQFSNKFLQTISDVDGFILKNRSPSCGTRDVKIYSGFEKAPAKGKGPGLFGGAVIKNFSHLPIEEEGRLSNFIIREHFLTRLFTIAYYKMMKRNKNMKDLVSFQSDNKYLFMAYNQVKQKELGRIIANHKNEKIEVVFENYEKTLYELFMRTPRYTSNVNVCEHIFGYFKTKLKKQEKDHFLDLIQKYKEKKIPLSSLLAILKSWALRFDEKYLLRQTYFEPYPEALVEISDSGKGRDY” here?
Answer: The value was “not soluble”.

Question: Which “soluble on expression in E. coli” value does the source give for “MGSDKIHHHHHHMRRIRTLLSKKPSKLVFNLRKYAAFRQAWKSINVNRTSYSKTRRHYDAVVIGSDEVWNIQNPTFAMMPEYFGRGLNAKNIITYAPSSSKTTYADVAQNPLLAEGMRNIHHFSARDRNTFEIVEKIVNKPVTMVLDPTFLVEYDEEVEEAGVNSHGYVLVYTYQFDRLKIEKTRRFARSRGLRLISPCFYNDWCDEVVPCTPFGFLGLIRDAEYVVTDTFHGSIFSILYGKHFGSYASEKIKVAALLSALGLADRELGGVDDIGSVLDARIDYGRVRTCIEQERDVSLNYLRQALAPAG” here?
Answer: The value was “not soluble”.

Question: Which “soluble on expression in E. coli” value does the source give for “MGSDKIHHHHHHMRSPVPRVAAIHDLSGFGRTSLTVAIPVLSAMGIQVCPMPTAMLSTHTSGFKGFSFIDLTAEMRRFFDHWKSLNIRFDAIYSGFLGSPDQVAIVAQCIDMFRTPDGFAVVDPVLGDNGELEPTMDMEMVHRMRWLVSKADIITPNFTEAALLLDEPYREHIDQPTLKDWLRRLTAMGPHVAVVTSVPVEGSRTTTSVVAYNRPHDRFWKVDCQYIPAHYPGTGDTFASVLTGSILQGDSLPIAIERAVQFVTMGIRATFGHNSPSREGILLERVLDTLRAPVTMSSYELLEE” here?
Answer: The value was “not soluble”.

Question: With “MGSDKIHHHHHHMRSTDRLLFIDFLLKFENKNGTVIPCCVDNFDCTFTHKGGKSMYEKERKELYNAHLLLEKYGLVAYTSGNVSVRIGDHVLIKPSGVPYTELKPEDFVVVDLEGNVIEGEKKPSVDTATHLYLYKHLDWAKSVIHTHSTFAMVWAILEKSIPVLCTAHADVFGEEIPLTEYAPVGSEAIGKAVVKVIGKSGAVLLRKHGVMIVGTSVDDAVKKAIFLEEVAKAAYFATLAGKPTPLPPDEVDHLYNQYHTKYGQK” as the sequence, how does the “soluble on expression in E. coli” value read?
Answer: The value was “not soluble”.

Question: For “MGSDKIHHHHHHMRVNSQSNHDVSPAPSGVVLEAADPAELLVRAQKTLGLLSPLLSPLAQAFHDRGHRLYLVGGSVRDALLDELGHDLDCTTDARPEVVSAILEEYAPVVWDTGIEFGTVSAEKDGQQIEITTFRSDVYDGQSRNPEVQFGDTLEGDLIRRDFTVNAMAMEILPDGSMQFHDPVGGMNDLVAGLLDTPATPQQSFNDDPLRMLRAARFVSQLGFDLAPRVRHAMTEMADQITRITAERVQVELDKMICGKVPWDGIDVMVDTGLADIIYPEISALRLTQDEHHQHKDVYAHSLTVLRQAMDQEEDGPDVVLRWAALMHDCGKPDTREFSPEGRVSFHQHEIVGARLMRHRMRALKYSKHTIRDVSELIRLHMRFHGFSEGEWTDSAVRRYVTDAGDLLPRLHKLVRADCTTRNKKKAERLQKTYDHLEDRIADIAAKEDLAKVRPDLDGNEIMEILDIKAGPQVGQAWKFLKELRLERGPLEREDAILELKKWWYEQ”, which “soluble on expression in E. coli” value is on record?
Answer: The value was “not soluble”.

Question: Which “soluble on expression in E. coli” value does the source give for “MGSDKIHHHHHHMRYLSKDILEEVITQRPSDSYKSNFGRVVLIGGNRQYGGAIIMSTEACINSGAGLTTVITDVKNHGPLHARCPEAMVVGFEETVLLTNVVEQADVILIGPGLGLDATAQQILKMVLAQHQKQQWLIIDGSAITLFSQGNFSLTYPEKVVFTPHQMEWQRLSHLPIEQQTLANNQRQQAKLGSTIVLKSHRTTIFHAGEPFQNTGGNPGMATGGTGDTLAGIIAGFLAQFKPTIETIAGAVYLHSLIGDDLAKTDYVVLPTKISQALPTYMKKYAQPHTAPDSELLEQKRSR” here?
Answer: The value was “not soluble”.

Question: With “MGSDKIHHHHHHMSCKAFQGQTLREHIEAMLAAWEIVKNKYIPSIIRVMKTVGVKFTEEDADKFMKTLIILHDVGKCSEVYQKHLSNNEPLRGFRHELVSAYYAYNILKDMFKDETIAFIGALVVMMHHEPILMGQIRSLDKEELTPEVVLDKLRTFNGVMEGTESFIKSMIKEKLGVIPKVPSPTQEDVLREVIRLSVLARHRPDSGKLRMVVGALLIPLVLCDYKGAKEREGESPKFAEVLRVEMMK” as the sequence, how does the “soluble on expression in E. coli” value read?
Answer: Its value is “not soluble”.

Question: For “MGSDKIHHHHHHMSDEGRHKPTSAPNRVFMMKGMDKLRYQQDFLNIRPIFTAGEQEYLTGLSDRLPLSVLTGSVRNIEEIGIDFVYSSAKLEGNTYNQYDTQALLKLGQTAGGKLYSDAVMLINLRESYRHLLSGLDSPEPFDWLDFLKTTHSLISENLLEKGSGGVVRRDSVTISGTDYTPLSNPQSLDTELKWLLQEAPKIENPFDRAVYLHNNLAYLQYFKDCNKRTARNCMTLSLMRSGFFPCVFSPDSYPAYAEAVVAYYETGDYGLFKKYFISAYENTVNKYGPQPDMDIFRNFSL”, which “soluble on expression in E. coli” value is on record?
Answer: Its value is “not soluble”.

Question: For “MGSDKIHHHHHHMSDNLPKKQPRTAPPEARREQLIDATITAISTYGLSGTTLAKVTAEAGLSLGLVNFHFKSKEALLTATLTHLADEHRALWFTRSSQPDVSAADKLKLIVDAQFHAKICNRRKLSVWFAFFGESRPRKAYRELTGPLDEERQIATSRLCADIIAEGGYSGIDSDTVSAMLESLFDGFWLNILMYPDRFTRQSAKAQVLSYLRLCFPQHFTCLDAETFA”, which “soluble on expression in E. coli” value is on record?
Answer: The value was “not soluble”.

Question: Which “soluble on expression in E. coli” value does the source give for “MGSDKIHHHHHHMSDQRYNLRGVSASKEDVHNAIKNIDKGIFPKAFCKIIPDILGGDPEYCNIMHADGAGTKSSLAYMYWKETGDLSVWKGIAQDALIMNIDDLLCVGAVDNILVSSTIGRNKLLVPGEVISAIINGTDELLAELREMGVGCYATGGETADVGDLVRTIIVDSTVTCRMKRSDVIDNKNIQGGDVIVGLASSGQATYEKEYNGGMGSNGLTSARHDVFSKYLAKKYPESYDAAVPKELVYSGGLKLTDKIEELGIDAGKMVLSPTRTYAPVIKVLLDKLRSQIHGMVHCSGGAQTKVMHFVENKRVTKDNLFPIPPLFRTIQEQSGTDWSEMYKVFNMGHRMEIYIAPEHAEEVIGISKSFGIDAQIVGFVEEADKNELIIESEKGRFTY” here?
Answer: The value was “not soluble”.

Question: Which “soluble on expression in E. coli” value does the source give for “MGSDKIHHHHHHMSEENKIGTYQFVAEPFHVDFNGRLTMGVLGNHLLNCAGFHASDRGFGIATLNEDNYTWVLSRLAIELDEMPYQYEKFSVQTWVENVYRLFTDRNFAVIDKDGKKIGYARSVWAMINLNTRKPADLLALHGGSIVDYICDEPCPIEKPSRIKVTSNQPVATLTAKYSDIDINGHVNSIRYIEHILDLFPIELYQTKRIRRFEMAYVAESYFGDELSFFCDEVSENEFHVEVKKNGSEVVCRSKVIFE” here?
Answer: Its value is “not soluble”.

Question: For “MGSDKIHHHHHHMSEKLWEKGYKVNEEVEKFTVGDDYITDMKIIEYDIKASIVHSRMLHKIGLLSAEEQKKIEEALSELLNLVKEGKFQIKPEEEDCHTAIENFLVKKLGEIGKKIHTARSRNDQVLTALRLMYKEELKEIENLIRELQKSLERFIEKFGDVKFPGYTHTRKAMPTDFATWAGALKDALEDDLKLLKTAYEIVDQSPLGTGAGYGVPIDIDREFTAKELGFSKVQWNPIYTQNSRGKFEYLILHTLSQISYDLNRFASDIIFFSLPEIGYLKLPKELCTGSSIMPHKINPDPLELVRAHHHTIVSKMLMAVTLPSNLIFGYHRDFQLLKKPVIEAFEVVKNIVRIMKIIFDHLEVDKERSESSITEEVLATHRVYELVKQGVPFRDAYRMVAEKYGREKD”, which “soluble on expression in E. coli” value is on record?
Answer: Its value is “not soluble”.

Question: With “MGSDKIHHHHHHMSELTLLADADERGRRYLAGNAQRRVFPDADALSALARFNEALPQQGFSPEDTLTLLDEVGSPATTASNGPNYFGFVIGAALPIAAASERLMIAWDQCASTFDNSPVSATLERLASRWVLDILKLPKESAVGFGTSATACTLSCLVAARRAMLAKQGWDFDNDGLIGAPEIKVVISALTHITVKKALRVLGFGLRHIIVAPVNAFGQIDVTQLPPLDDRTILCLQAGEVNTGEFDDFAQIIPIAKAAGAWVHVDGAFGLWARASSHAALTESIELADSWTTDAHKWLNTPYDCAMAICRNADALAEAMNADAVYSSAARDAQKNLTLEFSRRPRGIPVWAVLRTLGRDGVAEMIERHCRQATLIADGLRHAGFEVLNRVVLNQVLLRGETDSQTTAIREALQASGKAWFGGTVWQGRPALRISVSSWRTQDDNVQALIALLTEIKAKTPR” as the sequence, how does the “soluble on expression in E. coli” value read?
Answer: The value was “not soluble”.

Question: For “MGSDKIHHHHHHMSEVSKWPAINPFHWGYNGTVSHIVGENGSIKLHLKDNKEQVDFDEFANKYVPTLKNGAQFKLSPYLFTGILQTLYLGAADFSKKFPVFYGREIVKFSDGGVCTADWLIDSWKKDYEFDQSTTSFDKKKFDKDEKATHPEGWPRLQPRTRYLKDNELEELREVDLPLVVILHGLAGGSHEPIIRSLAENLSRSGRFQVVVLNTRGCARSKITTRNLFTAYHTMDIREFLQREKQRHPDRKLYAVGCSFGATMLANYLGEEGDKSPLSAAATLCNPWDLLLSAIRMSQDWWSRTLFSKNIAQFLTRTVQVNMGELGVPNGSLPDHPPTVKNPSFYMFTPENLIKAKSFKSTREFDEVYTAPALGFPNAMEYYKAASSINRVDTIRVPTLVINSRDDPVVGPDQPYSIVEKNPRILYCRTDLGGHLAYLDKDNNSWATKAIAEFFTKFDELVV”, which “soluble on expression in E. coli” value is on record?
Answer: Its value is “not soluble”.

Question: For “MGSDKIHHHHHHMSEYIQLYRYLNSRLPGVERKRLVLLTGARQTGKTTLAKAKYADLRYVNLDAPENREAVRTIASAFWARDIGPAVLDEAQKEPVVFDKVKYAYDDGALSFSVLLGSSQILLLKKIRETLAGRISIYELWPLLMSEICNGSAAPPSSPPLVDCLFSDMTCDDFFGDKPGILLDMEDACRRRAEEHLLQWGGMPSLLPLNTEERRQWLKDYGYTYLERDMADLARLEDLMPFRKFQRLAALRSGCLLNYSELARDAAISVDTARRYLEYLRLSYQTVFLPPYHVNLTSAVVKTPKVYWLDVGLLRQLSGMQGPTTGEIYETMVVGELMKWMKTAGREGDVFFYRTRSGLEVDVLLETPSGVVGMEIKSRRVLAARDLTGLKEIALALGPRWRGGLVIYQGDELKRIGTPQLWAVPSRRLFTGIE”, which “soluble on expression in E. coli” value is on record?
Answer: Its value is “not soluble”.

Question: With “MGSDKIHHHHHHMSGFSPELIDYLEGKISFEEFERRREERKTREKKSLQEKGKLSAEENPDDSEVPSSSGINSTKSQDKDVSEGETSDGVRKSVHKVFASMLGENEDDEEEEEEEEEEEEEEETPEQPTAGDVFVLEMVLNRETKKMMKEKRPRSKLPRALRGLMGEANIRFARGEREEAILMCMEIIRQAPLAYEPFSTLAMIYEDQGDMEKSLQFELIAAHLNPSDTEEWVRLAEMSLEQDNIKQAIFCYTKALKYEPTNVRYLWERSSLYEQMGDHKMAMDGYRRILNLLSPSDGERFMQLARDMAKSYYEANDVTSAINIIDEAFSKHQGLVSMEDVNIAAELYISNKQYDKALEIITDFSGIVLEKKTSEEGTSEENKAPENVTCTIPDGVPIDITVKLMVCLVHLNILEPLNPLLTTLVEQNPEDMGDLYLDVAEAFLDVGEYNSALPLLSALVCSERYNLAVVWLRHAECLKALGYMERAAESYGKVVDLAPLHLDARISLSTLQQQLGQPEKALEALEPMYDPDTLAQDANAAQQELKLLLHRSTLLFSQGKMYGYVDTLLTMLAMLLKVAMNRAQVCLISSSKSGERHLYLIKVSRDKISDSNDQESANCDAKAIFAVLTSVLTKDDWWNLLLKAIYSLCDLSRFQEAELLVDSSLEYYSFYDDRQKRKELEYFGLSAAILDKNFRKAYNYIRIMVMENVNKPQLWNIFNQVTMHSQDVRHHRFCLRLMLKNPENHALCVLNGHNAFVSGSFKHALGQYVQAFRTHPDEPLYSFCIGLTFIHMASQKYVLRRHALIVQGFSFLNRYLSLRGPCQESFYNLGRGLHQLGLIHLAIHYYQKALELPPLVVEGIELDQLDLRRDIAYNLSLIYQSSGNTGMAQTLLYTYCSI” as the sequence, how does the “soluble on expression in E. coli” value read?
Answer: The value was “not soluble”.
